These results are taken from publication PMC5733156, “Heterologous Secretory Expression and Characterization of Dimerized Bone Morphogenetic Protein 2 in Bacillus subtilis” (BioMed Research International, 2017).

The series deals with the molecule itself. The series is described as follows: native gel or EMSA; 12% native PAGE in nonreducing condition (without SDS and β-mercaptoethanol), samples not boiled; monomer chain to dimer (the paper calls it disulfide linked). (Mobility shift assays separate free from complexed probe on a gel.)

Broadly, the stoichiometry N is the number of molecules, sites or subunits per partner or assembly.

B1: recombinant human Bone Morphogenetic Protein 2 (rhBMP2) monomer, from pHT43-BMP2-M (ligand, UniProt P12643 283-396, looked up)
chain: QAKHKQRKRLKSSCKRHPLYVDFSDVGWNDWIVAPPGYHAFYCHGECPFPLADHLNSTNHAIVQTLVNSVNSKIPKACCVPTELSAISMLYLDENEKVVLKNYQDMVVEGCGCR
notes: Bone Morphogenetic Protein 2, human, mature domain / mature peptide (~399 bp amplicon with sites and His-tag); RBMP2-M, translated, gives ...EGCGCR then GRG then HHHHHH and stop, so three residues (GRG) may lie between BMP2 and the His-tag; also called rhBMP (monomer); source: B. subtilis SCK6, secreted into the culture supernatant (pHT43, amyQ signal peptide); purified by FPLC (Resource Q)
In the case of B1, the “stoichiometry N” value was 2.
